Test results: patent US20130122568
Residue numbers refer to the chain shown, from its start.

Tests used:
Test in all cases: cleavage_in_vitro
[1] = target: T1, SalI (Streptomyces albus G) (UniProt Q53608); settings: NEB3, 37 C
T1 sequence: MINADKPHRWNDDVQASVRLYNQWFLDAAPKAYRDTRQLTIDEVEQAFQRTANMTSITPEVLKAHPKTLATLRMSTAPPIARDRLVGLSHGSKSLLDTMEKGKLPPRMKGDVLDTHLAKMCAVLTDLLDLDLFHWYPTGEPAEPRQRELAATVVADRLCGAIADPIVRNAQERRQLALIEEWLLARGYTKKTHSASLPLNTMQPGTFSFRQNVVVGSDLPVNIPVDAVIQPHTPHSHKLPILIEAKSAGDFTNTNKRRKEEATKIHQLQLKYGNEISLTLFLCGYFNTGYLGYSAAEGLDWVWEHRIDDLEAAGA

[2] = target: T2, SalI-HF R107A (Streptomyces albus G) (UniProt Q53608); settings: NEB2, 37 C
T2 sequence: T1 sequence with R107A

[3] = tested on: T3, AvrII-HF Y104F (Anabaena variabilis); settings: NEB4, 37 C
T3 sequence: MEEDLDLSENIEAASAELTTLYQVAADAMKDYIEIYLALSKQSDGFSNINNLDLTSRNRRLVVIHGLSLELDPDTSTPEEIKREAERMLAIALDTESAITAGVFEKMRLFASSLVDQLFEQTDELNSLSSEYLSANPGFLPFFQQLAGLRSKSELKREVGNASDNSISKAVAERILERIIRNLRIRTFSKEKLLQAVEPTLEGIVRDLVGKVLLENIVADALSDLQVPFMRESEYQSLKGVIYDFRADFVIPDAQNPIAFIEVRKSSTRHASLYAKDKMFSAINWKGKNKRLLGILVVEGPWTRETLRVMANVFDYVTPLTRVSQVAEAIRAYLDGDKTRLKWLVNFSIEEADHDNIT

[4] = tested on: T4, AvrII (Anabaena variabilis); settings: NEB1, 37 C
T4 sequence: T3 sequence with F104Y

[5] = target: T5, PvuII (Proteus vulgaris) (UniProt P23657); settings: NEB1, 37 C
T5 sequence: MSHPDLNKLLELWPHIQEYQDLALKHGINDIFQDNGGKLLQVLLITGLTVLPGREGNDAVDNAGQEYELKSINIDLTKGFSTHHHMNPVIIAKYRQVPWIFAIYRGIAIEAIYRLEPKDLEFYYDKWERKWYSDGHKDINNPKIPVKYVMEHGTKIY

## HindIII-digested lambda DNA
[1]
  activity (fidelity index): 32
[2]
  activity (fidelity index): > 64000

## T7 DNA
[3]
  activity (fidelity index): > 1000
[4]
  activity (fidelity index): 64

## pBR322
[5]
  activity (fidelity index): 250
